“Also recorded” adds a separate entry of the source.
How the values were obtained:
[1] = tested on: rat ischemia-reperfusion model of MI; assay: Intraventricular (LV) pressure / hemodynamic measurements after ischemia-reperfusion MI; format: in vivo; conditions: for LVEDP, benefit relative to PBS / LVSP, benefit relative to PBS / mean ABP, benefit relative to PBS: 8 weeks post-MI, Gal-3C 600 μg/day days 4-10, losartan 8 mg/kg/day in drinking water 56 days
Description: (§1) Pre-filled and primed mini-osmotic pumps were implanted a few minutes before surgical induction of MI and Gal-3C treatment continued for 7 days (denoted as “early window”) as in the pilot study described above. The effect of treatment on cardiac function was evaluated by serial echocardiography on day 0 pre-MI, 2 and 28 days post-MI, and LV pressure measurement at 28 days. For the early window, groups consisted of sham surgery with PBS, sham with 600 μg/day Gal-3C, MI with PBS, MI with 200 μg/day Gal-3C, and MI with 600 μg/day Gal-3C.
Serial echocardiography was performed at 2, 28, and 56 days (8 weeks) post-MI and terminal intraventricular pressure catheter measurements were obtained. The effect on cardiac function from losartan was compared to the effect of Gal-3C that included data from the 12 animals in the Gal-3C and the 12 animals in the vehicle-only group that were presented in FIG. 9 and FIG. 10. […] The results described herein indicate that treatment with Gal-3C post-MI would be more beneficial on recovery and preservation of heart function compared to treatment with losartan or another ARB alone.

[2] = tested on: rat ischemia-reperfusion model of MI; assay: Serial echocardiography (ejection fraction, ESV, EDV) after ischemia-reperfusion MI; format: in vivo; conditions: for EF, benefit relative to PBS: out to 8 weeks post-MI, Gal-3C 600 μg/day days 4-10, losartan 8 mg/kg/day in drinking water 56 days
Description: Animal experiments to test the therapeutic potential of Gal-3C in the preservation of post-MI cardiac function were performed using surgical induction of MI in rodents and functional evaluation of treatment as previously described (61-66). To most accurately model cardiac damage experienced by MI patients, a well-established ischemia-reperfusion procedure was used in which the left anterior descending coronary artery (LAD) of rats was occluded for 25 min followed by restoration of blood flow (67). This standard MI model is more clinically relevant than permanent LAD ligation models because the reperfusion experienced after post-MI angioplasty not only limits the size of the infarct, but paradoxically introduces free radical damage, and is well validated as a model for post-MI heart failure experimental therapies (68).
Experiments were performed according to the UCSF guidelines for rodent survival surgery and the Guide for the Care and Use of Laboratory Animals of the US National Institutes of Health. Male Sprague-Dawley rats (age 10-12 weeks) were anesthetized with isoflurane (2%), received analgesics (buprenorphine (0.1 mg/kg), subcutaneous injection) pre- and post-operation, and underwent ischemia-reperfusion MI involving temporary (25 minutes) occlusion of the left anterior descending coronary artery (LAD) to produce regional moderate myocardial ischemia.
Briefly, rats were ventilated to a small animal volume-controlled ventilator (Harvard Rodent Ventilator, Model 683, South Natick, Mass.), and the heart was exposed via thoracotomy. Occlusion proceeds with a 7-0 nonabsorbable surgical suture passed under the LAD 2-3 mm from tip of the normally positioned left auricle and tied around a 1-mm section of PE-50 tubing, tightening with an artery clamp to temporarily occlude the LAD. After occlusion for 25 minutes, reperfusion was allowed to the formerly ischemic bed. The chest was then closed with removal of excess fluid and air from the chest cavity. All animals were monitored post-operation until they became ambulatory. The mortality during MI procedure was 12%.
The highest dose, 600 μg/rat/day, and the lowest dose, 200 μg/rat/day, were chosen for continued study, representing approximately 2- and 5.5-fold higher doses based on body surface area of rats than was used in the multiple myeloma study of Gal-3C in mice (70). Groups of rats (n=10) were treated with low (200 μg/day) and high (600 μg/day doses of Gal-3C or with PBS-lactose (vehicle control) administered over 0-6 days post-MI (“early window”; primed pumps were implanted several minutes before the MI procedure on day 0). These groups were designed to be sufficiently powered to detect potentially statistically significant improvement from Gal-3C treatment.
as §1
In a subsequent experiment, the high dose Gal-3C and the PBS control were administered by Alzet pump over a delayed delivery window of from 4 days until 10 days post-MI (denoted as “delayed window”) to rats that had been subjected to the same ischemia-reperfusion procedure as described in Example 2 above. Delayed treatment might better enable fibrotic repair of the infarct while preventing wall rupture. […]

[3] = tested on: rat ischemia-reperfusion model of MI; assay: Pilot dose-finding study: hydroxyproline assay of collagen in the left ventricle after ischemia-reperfusion MI; format: in vivo; conditions: 100, 200, 400, 600 μg/day by osmotic pump from day 0 for 7 days; vs vehicle; n=2-3
Description: Animal experiments to test the therapeutic potential of Gal-3C in the preservation of post-MI cardiac function were performed using surgical induction of MI in rodents and functional evaluation of treatment as previously described (61-66). To most accurately model cardiac damage experienced by MI patients, a well-established ischemia-reperfusion procedure was used in which the left anterior descending coronary artery (LAD) of rats was occluded for 25 min followed by restoration of blood flow (67). […]
Briefly, rats were ventilated to a small animal volume-controlled ventilator (Harvard Rodent Ventilator, Model 683, South Natick, Mass.), and the heart was exposed via thoracotomy. […] All animals were monitored post-operation until they became ambulatory. […]
A pilot dose-finding study was performed to determine Gal-3C levels reducing fibrosis, with collagen levels in heart tissue extracts as surrogate endpoints. […] It was determined that an equivalent to the mouse dose for use in rats of 250-300 g/body weight based on m^2 of average body surface area of the two species as approximately 105 μg/day. […]

[4] = tested on: rat ischemia-reperfusion model of MI; assay: Infarct size from Masson's trichrome-stained heart sections (volumetric, % area scarred); format: in vivo; conditions: 600 μg/day
Excerpt: (§2) After rats in the delayed treatment study were euthanized, hearts were harvested and sectioned for Masson's trichrome and Sirius red staining with quantitative image analysis to assess remodeling. Rather than using an optimized approach for infarct size measurement in permanent ligation rat models (64), it was confirmed that in the ischemia-reperfusion MI model, a volumetric infarct sizing approach (i.e., % area in the tissue sections that was scarred) would be more accurate. Using this approach for analysis of Masson's trichrome staining, it was shown that the infarct size was considerably (>2-fold) reduced in Gal-3C-treated (600 μg/day) rats, a difference that achieved significance with Gal-3C treatment in the delayed window (FIG. 8A).
As described in Example 3 above, rats were euthanized at 8 weeks post-MI, hearts were harvested and sectioned for Masson's trichrome and Sirius red staining with quantitative image analysis using a volumetric infarct sizing approach (i.e., % area in the tissue sections that was scarred) for analysis of Masson's trichrome staining to calculate the size of the primary infarct.

[5] = tested on: Primary human cardiac fibroblasts; assay: TGFβ1-induced differentiation of primary cardiac fibroblasts to myofibroblasts (immunoblots of SMA and tensin 1); format: cell-based
Description: Galectin-3 was purified on lactosyl-sepharose from recombinant E. coli pelleted from 40 L of culture, collagenase digested, and then Gal-3C was isolated on lactosyl sepharose as previously described (41). Primary human cardiac fibroblasts (Cell Applications, San Diego, Calif.) were purchased and cultured as per the vendor's recommendations. 200,000 cells at passage 2-3 were cultured in 6-well plates until confluent, starved for 48 h and then induced to differentiate to myofibroblasts by treatment with […] TGFβ1 for 48-72 h. Varying concentrations of Gal-3C were also incubated with the cells. The cells were harvested, lysates prepared, and total protein quantified with a BCA assay (Pierce/Thermo). A total of […] protein was analyzed per condition by immunoblots using primary Abs against smooth muscle actin (SMA) and tensin 1 (Sigma-Aldrich).

[6] = tested on: xenograft model of human multiple myeloma; conditions: mice; 30 μg/day by ALZET mini-osmotic pumps; cited from earlier work
[7] = tested on: rat ischemia-reperfusion model of MI; assay: Interstitial (non-scar) border zone fibrosis from Sirius red-stained heart sections; format: in vivo; conditions: delayed window, 600 μg/day
Excerpt: as §2
Quantitative histology of Sirius red staining for interstitial fibrosis was performed on tissue sections with the most scar from each heart as described above in Example 3 using ImageJ.

[8] = TGFβ1 5 or 15 mg/ml for 48-72 h, varying concentrations of Gal-3C
[9] = Gal-3C 600 μg/day days 4-10 vs losartan 8 mg/kg/day 56 days, 15/group
[10] = delayed window, 600 μg/day, 8 weeks, vs controls, n=12/group
[11] = delayed window (4-10 days post-MI), 600 μg/day, 28 days post-MI, vs vehicle
[12] = delayed window Gal-3C, 8 weeks (day 56) post-MI, expanded groups 15/group (FIG. 12)
[13] = delayed window, 600 μg/day, 8 weeks (day 56) post-MI, vs vehicle, n=12/group
[14] = early window (0-6 days post-MI), 200 and 600 μg/day, 28 days post-MI, vs PBS

## CCCCc1nc(Cl)c(CO)n1Cc1ccc(-c2ccccc2-c2nn[nH]n2)cc1 [losartan, reference compound]
[1]; 15/group
  LVEDP, benefit relative to PBS: no significant benefit
  LVSP, benefit relative to PBS: no significant benefit
  mean ABP, benefit relative to PBS: no significant benefit
[2]; 15/group
  EF, benefit relative to PBS: no significant benefit

B1: Gal-3C: N-terminally truncated form of full length galectin-3, lacking the amino-terminal domain but retaining carbohydrate binding ability; 143 carboxy-terminal residues, SEQ ID NO: 3 (protein)
chain: GAPAGPLIVPYNLPLPGGVVPRMLITILGTVKPNANRIALDFQRGNDVAFHFNPRFNENNRRVIVCNTKLDNNWGREERQSVFPFESGKPFKIQVLVEPDHFKVAVNDAHLLQYNHRVKKLNEISKLGISGDIDITSASYTMI
[3]
  reduction of collagen levels in the LV (hydroxyproline assay): 20-35%
[4]; 28 days post-MI, significant in the delayed window
  reduction of infarct size: > 2 fold
[4]; delayed window, 8 weeks post-MI
  infarct size vs PBS group: significantly smaller
[5]; Gal-3C 4-20 μg/ml, TGF1β 15 μg/ml
  differentiation to myofibroblasts induced by TGF1β (decreased expression of tensin-1 and SMA): inhibited the differentiation to myofibroblasts
[5]; [8]
  expression of SMA (smooth muscle actin), immunoblot: inhibited expression
  expression of tensin 1, immunoblot: inhibited expression
[6]
  efficacy in xenograft model of human multiple myeloma: good efficacy
[7]; 8 weeks post-MI, n=12/group
  reduction of interstitial fibrosis relative to vehicle-only controls: roughly 50%
[7]; 8 weeks post-MI, n=12/group, P=0.0003 vs PBS-only
  interstitial fibrosis (Sirius red), mean +/- SD: 2.4+/−1.3%
[7]; 28 days post-MI
  reduction of interstitial fibrosis vs vehicle-only controls: ~65%
[1]; 15/group
  LVEDP, benefit relative to PBS: statistically significant benefit
  LVSP, benefit relative to PBS: statistically significant benefit
  mean ABP, benefit relative to PBS: statistically significant benefit
[1]; [9]
  LVEDP, benefit relative to losartan: statistically significant benefit
  LVSP, benefit relative to losartan: statistically significant benefit
[1]; delayed window Gal-3C, 8 weeks, expanded groups 15/group (FIG. 13)
  dP/dt max and dP/dt min: did not reach significance
[1]; [10]
  LVEDP: reached significance
  LVSP: reached significance
  dP/dt max: did not reach significance
  dP/dt min: did not reach significance
  mean ABP: reached significance
[1]; delayed window, 600 μg/day, 28 days, vs vehicle
  all five hemodynamic parameters (mean ABP, LVSP, LVEDP, dP/dt max, dP/dt min): statistically significant improved
[1]; early window, 200 and 600 μg/day, 28 days, vs PBS
  intraventricular pressure measurement (mean ABP, LVSP, LVEDP, dP/dt max, dP/dt min): did not reach statistical significance
[1]; early window, 28 days
  hemodynamic parameters (mean ABP, dp/dt max and min), 600 μg/day compared to 200 μg/day: Trends to greater improvement
[2]; [9]
  EF, benefit relative to losartan: statistically significant benefit
  ESV, benefit relative to losartan: statistically significant benefit
[2]; [11]
  ESV: significant benefit; also recorded: statistically significant improvements
  LV EDV: no benefit
  LV ejection fraction: significant benefit; also recorded: statistically significant improvements
[2]; [12]
  EDV: beneficial effect
  ESV: beneficial effect
[2]; delayed window, 600 μg/day
  ejection fraction at 8 weeks compared to 4 weeks in treated animals: trend but not a statistically significant increase
[2]; [13]
  EDV: significant benefit
  ESV: beneficial effect
  ejection fraction: beneficial effect
[2]; [14]
  LV end diastolic volume (EDV): no benefit
  end systolic volume (ESV): profound benefit
  left ventricular ejection fraction: profound benefit
[2]; early window treatment, 2 days post-MI
  cardiac function by echocardiography (ejection fraction, ESV, EDV): no benefit observed
[2]; 15/group
  EF, benefit relative to PBS: statistically significant benefit

Source: patent US10369195B2, “Methods and compositions for preventing and treating damage to the heart” (MandalMed, Inc., priority 2016, dated 2019)
